# Measurements from patent US20230071765A1, “COMPOSITIONS HAVING THIOREDOXIN ACTIVITY AND RELATED METHODS” (ORPRO THERAPEUTICS, INC., priority 2020, published 2023).
# B1: ORP100S: thioredoxin with monothiol active site, Cys35 and non-active Cys 62, 69 and 73 substituted with serine (SEQ ID NO:29) (protein)
# chain: MVKQIESKTAFQEALDAAGDKLVVVDFSATWCGPSKMIKPFFHSLSEKYSNVIFLEVDVDDSQDVASESEVKSMPTFQFFKKGQKVGEFSGANKEKLEATINELV
# modifications: synthetic peptide motif
# Experiment: SEC-HPLC percent free monomer in solution
# Format: physicochemical
# Description: Functional assays 1. Reduction state of ORP100S was quantified using DTNB which reacts with free SH groups resulting in a yellow color change at 412 nm. Fifty microliters of 2.5 mM rhTrx was added to a 96-well plate, followed by 175 microliters of sample buffer and 25 microliters of 6 mM DTNB. After reactions were initiated by the addition of DTNB, change in kinetic absorbance at 412 nm due to DTNB reduction was monitored spectrophotometrically at 30° C. ORP100S concentration was determined by A280 (Nanodrop) using the extinction coefficient of human Trx-1 (7,000). The actual concentrations of free sulfhydryl groups were calculated based on the absorbance at 412 nm and the extinction coefficient of DTNB (14,150) in order to determine the reduction state as percentage of free sulfhydryl. […] 2. Percent of free monomer ORP100S in solution was determined using SEC. Samples were analyzed on a BioBasic S-300 250×4.6 column (Thermo Scientific) run on an Agilent 1100 HPLC system. The SEC-HPLC mobile phase buffer consisted of 40 mM ammonium acetate (pH 5.5), 2 mM EDTA and 450 mM NaCl. Low pH minimized dimerization while the 450 mM NaCl concentration improved resolution. The flow rate was 0.35 mL/min and absorbance was monitored at 280 nm. The length of each run was 20 minutes. The ORP100S monomer percentage was determined by integration of the area under the peak of the monomeric fraction divided by the total area under the curve of the chromatogram. 3. Disulfide bond reduction activity of ORP100S was quantified by assaying the reduction state of a small protein (human insulin) which in its heterodimeric form contains two intermolecular and one intramolecular disulfide, all three of which are known to be suitable thioredoxin substrates. Insulin reduction has classically been used to quantify thioredoxin activity by absorbance change following addition of NADPH and TrxR (Holmgren A., 1979, Thioredoxin catalyzes the reduction of insulin disulfides by dithiothreitol and dihydrolipoamide, J Biol Chem 254:9627-32). Such an approach is not suitable for monothiol C35S thioredoxins ORP-100 and ORP100S due to 1) the lack of cycling resulting from stoichiometric covalent linkage to the disulfide bond substrate and 2) the inability of NADPH and TrxR to reduce Cys32 of the oxidized monothiol Trx active site. Consequently, a new assay was developed based on the use of reverse-phase (RP) HPLC to monitor the rate of conversion of disulfide-bonded insulin heterodimers to monomeric forms. The two chains of human insulin have a total of six Cys residues which form three disulfide bonds in its mature structure. When ORP100S in the reduced form is incubated with dimeric insulin it reacts with these disulfide bonds to disrupt them, simultaneously forming covalent linkages to the ORP100S Cys32. […] The ORP100S samples were incubated with 10 mg/mL insulin for various time points (0-90 min) and the reactions were stopped by addition of iodacetic acid (IA) and trifluoroacetic acid (TFA). Relative activity at each time point was determined from changes in the area under the insulin heterodimer peak following separation over RP-HPLC (Agilent 1100) using an Intrada WP-RP 50×3 (Imtakt) column. Buffer A was 0.1% TFA and Buffer B was 0.1% TFA in acetonitrile. The gradient was […] in 5 min followed by 30 to 60% B in 45 min, then 60 to 80% B for an additional 5 min. The flow rate was 0.2 mL/min and absorbance was measured at 280 nm. In order to evaluate the change in the intact insulin molecule a time 0 baseline was first established using 1 M IA and 0.1% TFA without the addition of ORP100S. The area under the intact insulin heterodimer peak was then determined and set as equivalent to 100%. After the reaction with ORP100S the area of the intact insulin peak (corresponding to retention time) was measured. The percent reduction in intact insulin was then calculated from the decrease in the area following reduction divided by the area at time 0 multiplied by 100.
# [1] = 70 mg/mL in PBS, 25° C., red fraction removed
# [2] = 80 mg/mL in PBS, 25° C., red fraction removed
# [3] = 90 mg/mL in PBS, 25° C., red fraction removed
# [4] = 100 mg/mL in PBS, 25° C., red fraction removed
# [5] = 110 mg/mL in PBS, 25° C., red fraction removed
molecule,measurement,setting,value
B1,% monomer (232 hrs),[1],93%
same,% monomer (Time 0),[1],93%
same,% monomer (232 hrs),[2],93%
same,% monomer (Time 0),[2],94%
same,% monomer (232 hrs),[3],92%
same,% monomer (Time 0),[3],94%
same,% monomer (232 hrs),[4],93%
same,% monomer (Time 0),[4],95%
same,% monomer (232 hrs),[5],92%
same,% monomer (Time 0),[5],95%
same,SEC % monomer,Ox:Red 0:100 mixture,89%
same,SEC % monomer,Ox:Red 25:75 mixture,70%
same,SEC % monomer,Ox:Red 50:50 mixture,52%
same,SEC % monomer,Ox:Red 75:25 mixture,36%
same,SEC % monomer,Ox:Red 100:0 mixture,22%
same,decrease in percent monomer,"time 0 to 232 hours, 25° C., PBS, 70-110 mg/ml, red fraction removed",2%
